Consider 2 molecules from publication doi:10.1101/2024.03.31.587457, “The TTLL10 polyglycylase is stimulated by tubulin glutamylation and inhibited by polyglycylation” (bioRxiv, 2025).

Some results are limits rather than exact numbers.

In one experiment the target is T1, TTLL8 (Homo sapiens, UniProt A6PVC2).
T1 construct: residues 39-585; N-terminal GST tag cut with 3C protease; Sf9 baculovirus
T1 sequence (A6PVC2 39-585): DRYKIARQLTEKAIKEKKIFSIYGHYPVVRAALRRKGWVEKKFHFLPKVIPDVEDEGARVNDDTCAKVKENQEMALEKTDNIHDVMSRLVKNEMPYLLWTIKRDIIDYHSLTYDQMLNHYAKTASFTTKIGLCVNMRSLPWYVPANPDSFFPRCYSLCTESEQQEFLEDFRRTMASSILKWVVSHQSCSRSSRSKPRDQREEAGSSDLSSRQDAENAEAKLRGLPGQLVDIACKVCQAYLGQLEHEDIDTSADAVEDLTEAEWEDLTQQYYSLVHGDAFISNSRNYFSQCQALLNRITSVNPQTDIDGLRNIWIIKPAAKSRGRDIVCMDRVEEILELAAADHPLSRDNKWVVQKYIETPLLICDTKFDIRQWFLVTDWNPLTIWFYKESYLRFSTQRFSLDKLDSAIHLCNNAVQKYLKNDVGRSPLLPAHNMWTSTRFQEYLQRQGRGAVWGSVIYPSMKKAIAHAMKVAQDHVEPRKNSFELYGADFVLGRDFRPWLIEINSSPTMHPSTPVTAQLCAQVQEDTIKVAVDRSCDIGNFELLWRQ
In words: LC-MS and MS/MS of glycine added to tubulin tails. As to conditions: labelled compound (13C glycine); co-substrate unmodified human microtubules (taxol-stabilised); ATP-dependent; room temperature, 20 min. In kind it is biochemical.

The target of a further experiment is T2, TTLL10 (Xenopus tropicalis, UniProt A0A8J0T4S7).
T2 construct: residues 105-570; N-terminal GST tag cut with 3C protease; Sf9 baculovirus; untagged for mass spectrometry (C-terminal SNAP fusion only for microscopy)
T2 sequence (A0A8J0T4S7 105-570): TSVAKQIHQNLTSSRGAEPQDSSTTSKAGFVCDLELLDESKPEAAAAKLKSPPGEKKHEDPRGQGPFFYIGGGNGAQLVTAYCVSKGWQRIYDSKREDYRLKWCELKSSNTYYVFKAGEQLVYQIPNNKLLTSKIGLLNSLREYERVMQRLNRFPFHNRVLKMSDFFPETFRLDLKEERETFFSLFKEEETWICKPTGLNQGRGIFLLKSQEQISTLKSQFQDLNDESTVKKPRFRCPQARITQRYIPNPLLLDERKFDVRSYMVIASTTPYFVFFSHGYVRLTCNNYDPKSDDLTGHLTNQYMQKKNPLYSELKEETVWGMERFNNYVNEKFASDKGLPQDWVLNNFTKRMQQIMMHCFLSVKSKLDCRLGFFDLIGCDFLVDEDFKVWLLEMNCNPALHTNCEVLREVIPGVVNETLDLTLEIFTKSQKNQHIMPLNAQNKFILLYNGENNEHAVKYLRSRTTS
In words: LC-MS and MS/MS of glycine added to tubulin tails. In kind it is biochemical. The note with it: labelled compound (13C glycine); co-substrate human microtubules monoglycylated by TTLL8; ATP-dependent; room temperature, 20 min.

Experiment [1] deals with monoglycylated microtubules (α + 1.7G, β + 2.0G) (human) (UniProt P68363). Nature of the experiment: TIRF microscopy microtubule binding assay; binding curve of TTLL10-SNAP(Alexa647) on microtubules immobilised in neutravidin-coated flow chambers; apparent Kd.
The target in experiment [2] is monoglycylated microtubules (<nG>α ~ 1.1, <nG>β ~ 2.5) (human) (UniProt P68363). In words: TIRF microscopy microtubule binding assay; 500 nM TTLL10-SNAP(647) perfused over biotinylated taxol-stabilised microtubules immobilised on neutravidin; binding buffer 60mM KCl, 10mM NaCl, 40mM PIPES pH 6.8, 2mM Tris pH 8.0, 1.5mM MgCl2, 1mM ATP; peak line-scan intensities normalised to microtubule length and to unmodified microtubules in the same chamber.

For experiment [3], the target named is polyglycylated/polyglutamylated microtubules (<nG>α ~ 0.4, <nG>β ~ 1.9, glutamylated by TTLL6) (human) (UniProt P68363). The description is as above.
In experiment [4] the target is monoglycylated/polyglutamylated microtubules (<nG>α ~ 0.1, <nG>β ~ 0.8; <nE>α ~ 18, <nE>β ~ 4) (human) (UniProt P68363). Described as above.
Experiment [5] concerns the target monoglycylated microtubules (<nG>α ~ 0.8, <nG>β ~ 1.2) (human) (UniProt P68363). The description is as above.

Regarding `NCC(=O)O` [glycine], the “LC-MS and MS/MS of glycine added to tubulin tails” value on TTLL8 was “TTLL8 adds glycines to unmodified microtubules on both α- and β-tubulin”; at TTLL10, “TTLL10 can add glycines to both α- and β-tubulin as long as they were previously monoglycylated”.

B1: Alexa647-labeled TTLL10-SNAP (enzyme)
chain: TSVAKQIHQNLTSSRGAEPQDSSTTSKAGFVCDLELLDESKPEAAAAKLKSPPGEKKHEDPRGQGPFFYIGGGNGAQLVTAYCVSKGWQRIYDSKREDYRLKWCELKSSNTYYVFKAGEQLVYQIPNNKLLTSKIGLLNSLREYERVMQRLNRFPFHNRVLKMSDFFPETFRLDLKEERETFFSLFKEEETWICKPTGLNQGRGIFLLKSQEQISTLKSQFQDLNDESTVKKPRFRCPQARITQRYIPNPLLLDERKFDVRSYMVIASTTPYFVFFSHGYVRLTCNNYDPKSDDLTGHLTNQYMQKKNPLYSELKEETVWGMERFNNYVNEKFASDKGLPQDWVLNNFTKRMQQIMMHCFLSVKSKLDCRLGFFDLIGCDFLVDEDFKVWLLEMNCNPALHTNCEVLREVIPGVVNETLDLTLEIFTKSQKNQHIMPLNAQNKFILLYNGENNEHAVKYLRSRTTS
modifications: SNAP-Surface Alexa Fluor 647 dye conjugated to the SNAP tag
As to B1, the Kd in experiment [1] came to 600 nM. The molecule also displayed a percent increase in recruitment on addition of more monoglycines (against microtubules with <nG>α ~ 0.8, <nG>β ~ 1.2) in experiment [2] of 17%. The fold binding against the same polyglycylated microtubules without glutamylation in experiment [3] turned out to be 3.2 fold. This molecule also displayed a fold recruitment against the same monoglycylated microtubules without glutamylation in experiment [4] of 1.8 fold. This molecule showed a fold recruitment against unmodified microtubules in experiment [5] greater than 6 fold.
